# Experimental data: patent US10154881B2, “Methods and compositions for tissue adhesives” (ARIZONA BOARD OF REGENTS FOR AND ON BEHALF OF ARIZONA STATE …, priority 2012, dated 2018)
# Where “and” joins values, the source holds several entries; their conditions need not be identical. Equal entries are not always repeated.
# B1: C12ELP: Elastin-like polypeptide with 12 cysteine residues, SEQ ID NO:2, expressed in E. coli (protein)
# chain: MVSACRGPGVGVPGVGVPGVGVPGVGVPGVGVPGVGVPGVGVPGVGVPGVGVPGVGVPGVGVPGVGVPGVGVPGVGVPGVGVPGVGVPGVGVPGVGVPGVGVPGVGVPGVGVPGVGVPGVGVPGVGVPGVGVPGVGVPGVGVPGVGVPGVGVPGVGVPGVGVPGVGVPGVGVPGVGVPGVGVPGVGVPGVGVPGVGVPGVGVPGVGVPG
# modifications: elastin-like polypeptide
# B2: C8ELP: Elastin-like polypeptide with 8 cysteine residues, SEQ ID NO:1, expressed in E. coli (protein)
# chain: MVSACRGPGVGVPGVGVPGVGVPGVGVPGVGVPGVGVPGVGVPGVGVPGVGVPGVGVPGVGVPGVGVPGVGVPGVGVPGVGVPGVGVPGVGVPGVGVPGVGVPGVGVPGVGVPGVGVPGVGVPGVGVPGVGVPGVGVPGVGVPGVGVPGVGVPGVGVPGVGVPGVGVPGVGVPGVGVPGVGVPGVGVPGVGVPGVGVPGVGVPGVGVPGVGVPGVGVPGVGVPGCGVPGVGVPGVGVPGVGVPGVGVPGCGVPGVGVPGVGVPGVGVPGVGVPGCGVPGVGVPGVGVPGVGVPGVGVPGCGVPGVGVPGVGVPGVGVPGVGVPGCGVPGVGVPGVGVPGVGVPGVGVPGCGVPGVGVPGVGVPGVGVPGVGVPGCGVPGVGVPGVGVPGVGVPGVGVPGCGVPGVGVPGWP
# modifications: elastin-like polypeptide
# Test: Determination of transition temperature (Tt) of ELPs by absorbance at 610 nm
# Assay type: physicochemical
# Conditions: 0.5× PBS; temperature at which absorbance at 610 nm reaches 50% of maximum
# Method: The transition temperatures (Tt) of C8ELP and C12ELP were characterized by monitoring the absorbance at 610 nm as a function of temperature with an UV-visible spectrophotometer (Beckman DU530) in 0.5× phosphate-buffered solution (PBS). Briefly, 1 ml of C8ELP (0.5 mg/ml in 0.5×PBS) and 1 ml of C12ELP (1 mg/ml in 0.5×PBS) were prepared and placed in 1.5-ml disposable cuvettes. The temperature of CnELP (n: the number of cysteines in the ELP repeat sequence; n=8/12) was tuned by placing the CnELP-contained cuvette into a Precision 288 Digital Water Bath (Thermo Scientific) and was recalibrated by FLUKE 54 II (Type K) thermometer before absorbance measurement. The absorbance of CnELP was monitored at 610 nm with an UV-visible spectrophotometer (Beckman DU530) immediately after withdrawing the cuvette out of the water bath. The Tt is defined as the temperature at which the absorbance of CnELP solution reaches 50% of the maximum value. The temperature response of the C8ELP and C12ELP indicated Tt values of 31.3 and 30.5° C., respectively.
row,Molecule,Transition temperature (Tt)
1,B1,30.4 °C and 30.5 °C
2,B2,31.3 °C
